Here are results for nine molecules from article PMC10082759, “Shieldin complex assembly kinetics and DNA binding by SHLD3” (Communications Biology, 2022).

For one series, the target named is REV7 (Homo sapiens) (UniProt Q9UI95). The note with it: cited from earlier work.
Another series addresses T1, REV7^WT (human, UniProt Q9UI95 1-211).
T1 construct: REV7 (MAD2L2), human; The methods say in general that the MBP or GST tag was cleaved with PreScission protease; here the protein is labelled without a tag; also called MAD2L2; wild-type REV7; source: E. coli LOBSTR, purified (metal chelating column, tag cleavage, SEC); not shown: hexahistidine-MBP or GST, N-terminal, cleaved
The series is described as follows: SPR; SHLD3^1–62 or REV3^1871–2014 immobilised on SCR HC30M chip by EDC-NHS; REV7 injected in two-fold dilutions; buffer B with 0.05% Tween 20. Particulars: both partners purified.

Series [1] concerns the target REV7^R124A (human, UniProt Q9UI95 1-211, R124A). The series is described as follows: SPR. On the technique in general: Surface plasmon resonance follows binding to a sensor surface in real time, without labels.
Series [2] deals with T2, REV7^R124A (human, UniProt Q9UI95 1-211, R124A).
T2 construct: REV7 (MAD2L2), human; also called dimerization mutant; source: E. coli LOBSTR, purified (metal chelating column, tag cleavage, SEC); not shown: hexahistidine-MBP or GST, N-terminal, cleaved
As to the kind of experiment: SPR; SHLD3^1–62 or REV3^1871–2014 immobilised on SCR HC30M chip by EDC-NHS; REV7 injected in two-fold dilutions; buffer B with 0.05% Tween 20. Particulars: both partners purified.
T2 sequence (Q9UI95 whole entry R124A): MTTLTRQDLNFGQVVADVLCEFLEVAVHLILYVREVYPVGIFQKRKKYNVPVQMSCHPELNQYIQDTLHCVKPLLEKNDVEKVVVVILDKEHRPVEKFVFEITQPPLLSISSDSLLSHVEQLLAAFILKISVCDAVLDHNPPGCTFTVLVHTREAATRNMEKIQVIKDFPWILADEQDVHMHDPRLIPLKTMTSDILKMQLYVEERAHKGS

Another series deals with T3, preformed REV7^ΔN-SHLD3 (human, UniProt Q9UI95 15-211; Q6ZNX1 1-62).
T3 construct: REV7 (MAD2L2), human, without the N-terminal 14 residues; as m8; SHLD3, human, residues 1-62; as m16; source: E. coli LOBSTR, purified components, complex formed beforehand; not shown: hexahistidine-MBP or GST, N-terminal, cleaved; GST, N-terminal, kept
The series is described as follows: SEC; 5 µM preformed REV7^ΔN-SHLD3 with 10 µM MBP-SHLD2^1–60 and MBP-REV7^core, 30 min on ice, Superdex-200 3.2/300 in buffer B. The note with it: both partners purified.

For series [3], the target named is T4, pre-formed GST-SHLD3^1–62-REV7 (human, UniProt Q6ZNX1 1-62; Q9UI95 1-211).
T4 construct: SHLD3, human, residues 1-62; as m16; REV7 (MAD2L2), human; as m1; also called GST-SHLD3^1–63-REV7 (methods); pre-formed REV7-SHLD3; source: E. coli LOBSTR, purified components, complex formed beforehand in the absence of SHLD2; not shown: GST, N-terminal, kept; hexahistidine-MBP or GST, N-terminal, cleaved
As to the kind of experiment: pull-down; MBP-SHLD2^1–60 as bait, five-minute incubation at 4 °C with REV7 and GST-SHLD3^1–62 or with pre-formed GST-SHLD3^1–62-REV7 and additional REV7. Particulars: both partners purified.

Series [4] concerns the target T5, SHLD3;SHLD2 1-95;REV7 R124A (human;human;human, UniProt Q6ZNX1;Q86V20-2;Q9UI95 1-250;1-95;1-211, ||R124A). The series is described as follows: analytical size-exclusion chromatography co-migration; excess DNA; 20 mM Na-HEPES pH 7.5, 5% glycerol, 100 mM NaCl, 0.5 mM TCEP; 10 nM DNA, 30 min, room temperature. The note with it: protein: recombinant;recombinant;recombinant, tags: tags cleaved (PreScission);GST tag, copies: 1;1;2, label: 5(6)-FAM. A general note: In gel filtration, larger molecules generally elute earlier.
Target sequence in this assay (Q9UI95 whole entry R124A, one chain of several): as the sequence (Q9UI95 whole entry R124A) above

For series [5], the target named is T5, SHLD3;SHLD2 1-95;REV7 R124A. The series is described as follows: fluorescence anisotropy; 20 mM Na-HEPES pH 7.5, 5% glycerol, 100 mM NaCl, 0.5 mM TCEP; 10 nM DNA, 30 min, room temperature. The note with it: protein: recombinant;recombinant;recombinant, tags: tags cleaved (PreScission);GST tag, cleaved (PreScission);tags cleaved (PreScission), copies: 1;1;2. A general note: Fluorescence polarisation rises when a labelled molecule tumbles more slowly, as on binding a larger partner.
Target sequence in this assay (Q6ZNX1 whole entry, chain 1 of 3): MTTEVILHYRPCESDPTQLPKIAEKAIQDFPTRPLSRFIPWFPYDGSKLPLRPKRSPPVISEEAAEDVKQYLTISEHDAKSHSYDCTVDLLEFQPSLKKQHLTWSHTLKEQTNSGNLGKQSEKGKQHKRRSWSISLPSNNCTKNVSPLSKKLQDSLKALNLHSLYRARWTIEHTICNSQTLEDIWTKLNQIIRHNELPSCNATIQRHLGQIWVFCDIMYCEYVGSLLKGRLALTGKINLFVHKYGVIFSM
Target sequence in this assay (Q86V20 1-95, chain 2 of 3): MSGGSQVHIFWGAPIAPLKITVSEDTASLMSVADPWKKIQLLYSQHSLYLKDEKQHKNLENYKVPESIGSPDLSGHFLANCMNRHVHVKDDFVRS
Target sequence in this assay (Q9UI95 whole entry R124A, chain 3 of 3): as the sequence (Q9UI95 whole entry R124A) above

The target of the next series is T6, SHLD3 CTD (human, UniProt Q6ZNX1 140-250).
T6 sequence: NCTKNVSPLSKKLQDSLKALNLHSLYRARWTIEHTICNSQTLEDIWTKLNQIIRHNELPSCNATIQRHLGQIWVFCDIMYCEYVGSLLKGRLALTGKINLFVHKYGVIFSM
The series is described as follows: fluorescence anisotropy; Kd similar to the Shieldin complex; 20 mM Na-HEPES pH 7.5, 5% glycerol, 100 mM NaCl, 0.5 mM TCEP; 10 nM DNA, 30 min, room temperature. Particulars: protein: recombinant, tags: MBP or GST tag, cleaved (PreScission).

The target in series [6] is SHLD3 1-83;SHLD2 1-60;REV7 (human;human;human, UniProt Q6ZNX1;Q86V20-2;Q9UI95 1-83;1-60;1-211, del84-250||). The series is described as follows: fluorescence anisotropy; 20 mM Na-HEPES pH 7.5, 5% glycerol, 100 mM NaCl, 0.5 mM TCEP; 10 nM DNA, 30 min, room temperature. The note with it: protein: recombinant;recombinant;recombinant; tags: ;;; copies: 1;1;2; label: 5(6)-FAM.

Where [7] appears, read: label: 5(6)-FAM on strand 1, blunt.

T1 sequence (Q9UI95 whole entry): as the sequence (Q9UI95 whole entry R124A) above, with A124R counted along it
T3 sequence (Q9UI95 15-211, stated change not applied, one chain of several): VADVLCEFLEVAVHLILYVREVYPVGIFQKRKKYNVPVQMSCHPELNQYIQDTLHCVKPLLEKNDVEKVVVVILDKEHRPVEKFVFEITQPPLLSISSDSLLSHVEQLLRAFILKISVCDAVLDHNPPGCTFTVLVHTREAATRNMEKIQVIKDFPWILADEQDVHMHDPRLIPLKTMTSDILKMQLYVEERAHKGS
Chain of SHLD3 1-83;SHLD2 1-60;REV7 (Q9UI95 whole entry, stated change not applied, one chain of several): as the sequence (Q9UI95 whole entry R124A) above, with A124R counted along it
T4 sequence (Q9UI95 whole entry, the tested form may be a part, one chain of several): as the sequence (Q9UI95 whole entry R124A) above, with A124R counted along it

In the case of REV7 (from UniProt Q9UI95), the Kd (as a rule, a measure of binding affinity in units of concentration) with REV7 (Homo sapiens) was 2000 nM.

B1: REV3^1871–2014 (domain or fragment, human, UniProt O60673 1871-2014, looked up)
chain: TPRTANILKPLMSPPSREEIMATLLDHDLSETIYQEPFCSNPSDVPEKPREIGGRLLMVETRLANDLAEFEGDFSLEGLRLWKTAFSAMTQNPRPGSPLRSGQGVVNKGSSNSPKMVEDKKIVIMPCKCAPSRQLVQVWLQAKE
notes: REV3, human, residues 1871-2014 (holds RBM1 1875-1896 and RBM2 1991-2012); Named without a tag; the methods say in general that tags were cleaved; source: E. coli LOBSTR, purified; not shown: hexahistidine-MBP or GST, N-terminal, cleaved
Regarding B1, in the series with REV7^WT, the binding result is reported as “binds”.

B2: SHLD3^1–62 (domain or fragment, human, UniProt Q6ZNX1 1-62, looked up)
chain: MTTEVILHYRPCESDPTQLPKIAEKAIQDFPTRPLSRFIPWFPYDGSKLPLRPKRSPPVISE
notes: the methods say in general that tags were cleaved; also called SHLD3^RBM; source: E. coli LOBSTR, purified; not shown: hexahistidine-MBP or GST, N-terminal, cleaved
Turning to B2, the Kd was ~67 nM with REV7^R124A [1] and ~50 nM with REV7^WT. Also, the binding result with REV7^R124A [2] was “binds”.

B3: MBP-SHLD2^1–60 (domain or fragment, human, UniProt Q86V20-2 1-60, looked up)
chain: MSGGSQVHIFWGAPIAPLKITVSEDTASLMSVADPWKKIQLLYSQHSLYLKDEKQHKNLE
notes: SHLD2, human, N-terminal residues 1-60; source: E. coli LOBSTR, purified; not shown: hexahistidine-MBP, N-terminal, kept
With B3, the binding result (in the series with preformed REV7^ΔN-SHLD3; in series [3]) was “binds” in each case.

With AAGGGGAGCGGGGGAGGATAATAGGAAGGGGAGCGGGGGAGGATAATAGG (ssDNA) [50 nt ssDNA], in series [4], the binding result is given as “binds”.

B4: dsTelo (dsDNA)
DNA 1: TTAGGGTTAGGG
DNA 2: CCCTAACCCTAA
Consider B4, for which the Kd in [5] (setting [7]) stood at 180 nM. Moreover, the binding result in the series with SHLD3 CTD (setting [7]) was “binds”.

B5: non-telomeric dsDNA (dsDNA)
DNA 1: AGTGCCAGTGCC
DNA 2: GGCACTGGCACT
For B5, the Kd in [5] (setting [7]) came out at 166 nM. Besides, in the series with SHLD3 CTD (setting [7]), the binding result is “binds”.

For the molecule AGTGCCAGTGCC (ssDNA) [non-telomeric ssDNA], the Kd in [5] (label: 5(6)-FAM) is 137 nM. In addition, the binding result in series [6] was “no binding”; with SHLD3 CTD (label: 5(6)-FAM) it was “binds”.

TTAGGGTTAGGG (ssDNA) [telomeric ssDNA]: the Kd in series [5] (label: 5(6)-FAM) came to 207 nM. The binding result with SHLD3 CTD (label: 5(6)-FAM) is on record as “binds”.
